Measurements from publication PMC9169624, “Human HELB is a processive motor protein that catalyzes RPA clearance from single-stranded DNA” (Proceedings of the National Academy of Sciences of the …, 2022).

Target: human Replication Protein A (RPA) complex (human) (UniProt P27694)
Sequence (P27694 whole entry, chain 1 of 3): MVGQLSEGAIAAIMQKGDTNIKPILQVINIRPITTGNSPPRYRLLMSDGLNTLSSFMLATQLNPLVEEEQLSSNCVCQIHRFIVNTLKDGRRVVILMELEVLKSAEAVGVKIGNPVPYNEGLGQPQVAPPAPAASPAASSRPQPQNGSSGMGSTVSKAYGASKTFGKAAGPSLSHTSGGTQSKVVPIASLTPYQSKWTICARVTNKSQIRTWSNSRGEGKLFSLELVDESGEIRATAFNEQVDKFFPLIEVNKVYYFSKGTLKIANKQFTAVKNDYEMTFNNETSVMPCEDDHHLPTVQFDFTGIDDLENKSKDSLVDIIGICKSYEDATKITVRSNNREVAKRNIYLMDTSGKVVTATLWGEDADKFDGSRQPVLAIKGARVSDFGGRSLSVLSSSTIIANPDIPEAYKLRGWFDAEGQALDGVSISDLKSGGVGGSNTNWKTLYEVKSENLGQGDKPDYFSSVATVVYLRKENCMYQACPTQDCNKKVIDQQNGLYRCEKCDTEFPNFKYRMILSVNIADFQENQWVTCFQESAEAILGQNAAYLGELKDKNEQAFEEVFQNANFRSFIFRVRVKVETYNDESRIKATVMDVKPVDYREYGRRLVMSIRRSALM
Sequence (P15927 whole entry, chain 2 of 3, further chain): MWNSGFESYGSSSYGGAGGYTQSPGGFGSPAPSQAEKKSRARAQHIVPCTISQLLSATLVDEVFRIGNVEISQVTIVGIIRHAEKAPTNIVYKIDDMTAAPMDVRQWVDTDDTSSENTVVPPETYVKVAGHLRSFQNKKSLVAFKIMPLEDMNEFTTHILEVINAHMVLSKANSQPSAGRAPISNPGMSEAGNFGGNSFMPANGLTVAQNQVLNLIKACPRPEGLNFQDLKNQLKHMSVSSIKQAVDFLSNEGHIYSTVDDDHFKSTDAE
Sequence (P35244 whole entry, chain 3 of 3, further chain): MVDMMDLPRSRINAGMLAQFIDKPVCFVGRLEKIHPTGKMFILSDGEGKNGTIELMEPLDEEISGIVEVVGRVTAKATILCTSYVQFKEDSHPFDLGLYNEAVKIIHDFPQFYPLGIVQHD

Sequence of Human DNA helicase B (HELB) (Q8NG08 whole entry): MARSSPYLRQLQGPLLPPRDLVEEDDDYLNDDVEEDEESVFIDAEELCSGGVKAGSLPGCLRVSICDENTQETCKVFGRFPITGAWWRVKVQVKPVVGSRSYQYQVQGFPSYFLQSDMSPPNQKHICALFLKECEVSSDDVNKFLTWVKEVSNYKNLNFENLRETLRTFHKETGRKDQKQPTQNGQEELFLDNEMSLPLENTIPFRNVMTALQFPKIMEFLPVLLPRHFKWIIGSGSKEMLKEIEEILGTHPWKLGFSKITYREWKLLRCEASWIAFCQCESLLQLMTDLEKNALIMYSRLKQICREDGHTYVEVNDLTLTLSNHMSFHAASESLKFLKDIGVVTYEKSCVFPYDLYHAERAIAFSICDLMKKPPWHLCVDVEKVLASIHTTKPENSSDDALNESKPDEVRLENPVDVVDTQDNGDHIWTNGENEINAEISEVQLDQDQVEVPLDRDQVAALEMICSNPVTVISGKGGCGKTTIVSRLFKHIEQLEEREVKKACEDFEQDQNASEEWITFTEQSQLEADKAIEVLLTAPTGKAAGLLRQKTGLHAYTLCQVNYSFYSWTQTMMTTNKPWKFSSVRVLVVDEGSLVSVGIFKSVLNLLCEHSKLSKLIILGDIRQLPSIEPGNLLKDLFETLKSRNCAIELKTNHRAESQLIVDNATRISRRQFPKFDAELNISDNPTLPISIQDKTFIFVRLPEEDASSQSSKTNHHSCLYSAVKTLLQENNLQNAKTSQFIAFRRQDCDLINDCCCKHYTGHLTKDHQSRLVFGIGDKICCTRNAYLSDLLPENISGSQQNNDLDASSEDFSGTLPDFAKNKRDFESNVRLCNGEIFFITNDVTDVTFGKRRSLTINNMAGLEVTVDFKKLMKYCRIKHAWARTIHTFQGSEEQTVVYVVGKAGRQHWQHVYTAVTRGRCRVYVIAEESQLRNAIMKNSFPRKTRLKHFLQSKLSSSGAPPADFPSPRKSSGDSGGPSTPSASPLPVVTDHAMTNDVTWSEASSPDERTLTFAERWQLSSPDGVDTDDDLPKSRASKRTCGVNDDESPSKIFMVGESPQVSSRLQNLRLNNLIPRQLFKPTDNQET

observed rate of ATP hydrolysis by HELB at low φX174 ssDNA (0.1 × KDNA), RPA titrated from one RPA per 200 nt to one RPA per 20 nt: 8 fold
Substance: Human DNA helicase B (HELB) (from UniProt Q8NG08 1-1087) (enzyme)
